Where a chain is given by its changes, count along the chain named. Like-named read-outs stand apart in the source and are kept apart here.
T1: human lysozyme (human, UniProt P61626 19-148, biotinylated)
T1 construct: also called human lysozyme protein
T1 sequence (looked up): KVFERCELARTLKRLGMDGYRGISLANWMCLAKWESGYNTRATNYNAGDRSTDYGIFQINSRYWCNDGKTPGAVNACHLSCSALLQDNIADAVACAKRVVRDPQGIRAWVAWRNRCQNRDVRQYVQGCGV

B1: p253 (other)
CAR: QVQLVESGGGLVQAGGSLRLSCAASGSSFSIYDVGWFRQAPGKEREFVAATIETGGHTSYADSVKGRFTISRDNAKNTVYLQMNSLKPEDTAVYYCYAKIVYDQGPSYYYWGQGTQVTVSS
B2: humanized D04 VHH CAR (hyLYSO_CW_P01_D04) on Nurkat cells or primary T cells (other, not shown: small tags and cut ends)
chain: EVQLLESGGGLVQPGGSLRLSCAASGRIFSIYDTIGWFRQAPGKEREFVAATITTAGITTYDDSVKGRFTISRDNSKNTLYLQMNSLRAEDTAVYYCYVRVGRGDYWGQGTQVTVSS
notes: also called D04 (p1648); P1650
B3: huB11_CNTY1_E11 anti-idiotype VHH (periplasmic extract) (VHH)
VHH: EVQLLESGGGLVQPGGSLRLSCAASGFAFSDYVMGWYRQAPGKEREFVSAIRSTTSTYYADSVKGRFTISRDNSKNTLYLQMNSLRAEDTAVYYCAADVWSGYEYDYWGQGTQVTVSS
notes: Screened as periplasmic extract; also called VHH of AMD75
B4: huB11_CNTY1_B11 anti-idiotype VHH (periplasmic extract) (VHH)
VHH: B3 VHH with F27L, D31S, V33A, A50V, R52S, S53G, T55G, S56E, Y58L
notes: Screened as periplasmic extract; also called VHH of AMD76
B5: p248 (other)
CAR: QVQLVESGGGLVQAGGSLRLSCAASGSIFSFYDVGWFRQAPGKEREFVAASITKGGGTYYVDSVKGRFTISRDNAKNTVYLQMNSLKPEDTAVYYCALATPHGYDFWGQGTQVTVSS
B6: AMD88 (huD04_CNTY1_D10 anti-idiotype VHH IgG1-Fc fusion) (Fc fusion)
chain: EVQLLESGGGLVQPGGSLRLSCAASGRTSSNYVIGWYRQAPGKEREFVSAISGGGSTYYADSVKGRFTISRDNSKNTLYLQMNSLRAEDTAVYYCATRIYTARGAGDYWGQGTQVTVSS
notes: not shown: IgG1 Fc
B7: huD04_CNTY1_D11 anti-idiotype VHH (periplasmic extract) (VHH)
VHH: EVQLLESGGGLVQPGGSLRLSCAASGSTFSYYYMGWYRQAPGKERELVSAISSGGSIYYADSVKGRFTISRDNSKNTLYLQMNSLRAEDTAVYYCARRTYYGDEADYWGQGTQVTVSS
notes: Screened as periplasmic extract; also called VHH of AMD87
B8: humanized B11 VHH CAR (hyLYSO_CW_P01_B11) on Nurkat cells (other, not shown: small tags and cut ends)
chain: EVQLLESGGGLVQPGGSLRLSCAASGGIFSGGRMGWFRQAPGKEREFVAAVITRGGSTYYADSVKGRFTISRDNSKNTLYLQMNSLRAEDTAVYYCAASEVTYDEGRYIGTKSTYDTWGQGTQVTVSS
notes: also called B11 (p1649); P1649
B9: AMD77 (huD04_CNTY1_A11 anti-idiotype VHH IgG1-Fc fusion) (Fc fusion)
VHH: EVQLLESGGGLVQPGGSLRLSCAASGFTSSNYVMGWYRQAPGKEREFVSAIGSGGSTYYADSVKGRFTISRDNSKNTLYLQMNSLRAEDTAVYYCAAEIYTSGARDYWGQGTQVTVSS
modifications: Biotinylated in the FIG. 18 and FIG. 19 assays; the biotin sites are not stated.
notes: not shown: IgG1 Fc (and any hinge or linker to it)
B10: huD04_CNTY1_B12 anti-idiotype VHH (periplasmic extract) (VHH)
VHH: EVQLLESGGGLVQPGGSLRLSCAASGRTSSNYVMGWYRQAPGKEREGVSAITSGGSTYYADSVKGRFTISRDNSKNTLYLQMNSLRAEDTAVYYCAANLYSRTGAYDYWGQGTQVTVSS
notes: Screened as periplasmic extract; also called VHH of AMD82
B11: huD04_CNTY1_D10 anti-idiotype VHH (periplasmic extract) (VHH)
VHH: B6 chain
notes: Screened as periplasmic extract; also called VHH of AMD88
B12: huD04_CNTY1_D12 anti-idiotype VHH (periplasmic extract) (VHH)
VHH: B10 VHH with R27F, T52S, G54S, S56R, N98A, L99Y, R102G, T103Y, A105E, Y106T
notes: Screened as periplasmic extract; also called VHH of AMD86

Assays:
[1] = target: T2, chicken lysozyme (Hen Egg Lysozyme) (chicken, UniProt P00698 19-147, biotinylated); test: flow cytometry, CAR Jurkat cells + 10 ug/mL biotinylated lysozyme, streptavidin-APC, % positive cells
T2 construct: also called HEL; chicken egg white lysozyme
T2 sequence (P00698 19-147): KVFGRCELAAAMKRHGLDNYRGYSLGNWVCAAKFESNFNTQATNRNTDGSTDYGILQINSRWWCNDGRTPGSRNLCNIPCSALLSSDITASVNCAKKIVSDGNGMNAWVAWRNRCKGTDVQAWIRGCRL

human lysozyme = target: T1, human lysozyme; test: as above
[2] = target: T2, chicken lysozyme (Hen Egg Lysozyme); test: flow cytometry, CAR Nurkat cells + biotinylated HEL, streptavidin-APC, % positive cells
[3] = target: T3, D04 protein (humanized D04 VHH as ELISA antigen); test: periplasmic extract ELISA, absorbance 450 nm, single point
T3 construct: Panning used biotinylated D04-Fc; the ELISA legend says only 'D04 protein'

[4] = target: T4, B11 protein (humanized B11 VHH as ELISA antigen); test: as above
T4 construct: Panning used B11-Fc; the ELISA legend says only 'B11 protein'

[5] = target: T5, D04-his tagged VHH (humanized D04); test: Octet (BLI) specificity analysis, sample vs analyte
T5 construct: also called LysoD04.His; D04 his-tagged protein

[6] = target: T6, D04-Fc (humanized D04 VHH Fc fusion); test: as above
T6 construct: also called LysoD04.Fc; not shown: Fc

[7] = target: total human IgG from sera; test: as above
Fc-y fragment = test: as above
[8] = target: PROT939 (an off target VHH-fc soluble); test: as above
[9] = target: the molecule itself; test: as above
[10] = target: T7, B11-his tagged VHH (humanized B11); test: Octet (BLI), anti-idiotype VHH-Fc vs his-tagged VHH; table title prints D04-his, its footnote prints B11-his
T7 construct: also called B11-his protein; B11 his-tagged protein

[11] = target: T5, D04-his tagged VHH (humanized D04); test: Octet (BLI), anti-idiotype VHH-Fc vs his-tagged VHH; table title prints B11-his, paragraph 353 ties these values to D04
[12] = target: B8; test: flow cytometry, VHH-Fc on CAR Nurkat cells, 3-fold dilutions 50 to 0.02 nM, anti-Fc APC, %Fc positive cells
Text: […] Fc-fusion protein was detected via anti-Fc APC, and the percentage of cells that were positive for this detection method are shown. […] Controls include (i) no VHH-Fc added and (ii) the anti-VHH cocktail detection reagent (far right). The samples shown in the graphs for each protein appear in the order as specified in the legend.

[13] = target: T4, B11 protein (humanized B11 VHH as ELISA …); test: periplasmic extract ELISA, absorbance 450 nm, single point; remark: listed apart in the source
[14] = target: T3, D04 protein (humanized D04 VHH as ELISA …); test: as above; remark: listed apart in the source

Binder: B1
- binding result [1]: binds
- binding result (human lysozyme): no binding (tested: 10 ug/mL)

Binder: B2
- binding result [2]: binds

Binder: B3
- binding result [3]: no binding

Binder: B4
- binding result [4]: binds
- binding result [3]: no binding

Binder: B5
- binding result [1]: no binding (tested: 10 ug/mL)
- binding result (human lysozyme): no binding (tested: 10 ug/mL)

Binder: B6
- Response [5]: 0.0923
- Response [6]: 2.18
- Response [7]: -0.0338
- Response (Fc-y fragment): -0.0261
- Response [8]: -0.024
- Response [9]: 0.149
- Response [10]: -0.0183
- Kd [11]: 72.3 nM
- Response [11]: 0.289
- koff [11]: 0.0425 s⁻¹
- kon [11]: 588000 M⁻¹ s⁻¹
- binding result [12]: no binding (tested: 50 nM)

Binder: B7
- binding result [13]: no binding

Binder: B8
- binding result [2]: binds

Binder: B9
- Response [5]: 0.337
- Response [6]: 2.67
- Response [7]: -0.0155
- Response (Fc-y fragment): -0.009
- Response [8]: -0.0053
- Kd [11]: 2.08 nM
- Response [11]: 0.497
- koff [11]: 0.00145 s⁻¹
- kon [11]: 696000 M⁻¹ s⁻¹

Binder: B10
- binding result [13]: no binding

Binder: B11
- binding result [13]: no binding

Binder: B12
- binding result [13]: no binding
- binding result [14]: binds

From patent US20220193133A1 (CENTURY THERAPEUTICS, published 2022)
